29 molecules from US20210283212A1 (RA PHARMACEUTICALS, published 2021) can be followed below.

Starred links: 1 amine or outer side, 2 acyl side, 3 side chain; linkers in the order of their positions; H or OH if unused. Positions of bridges follow the written chain, without caps; N, C: chain ends. Non-standard residues stand in square brackets, D forms with d. Primed or numbered codes have the meaning given here. No end group written: not given here. *: point of attachment. mXylyl(3) = bridging moiety between the two residues given in brackets; m‑xylyl = bridging moiety between the two residues given in brackets; Lys(ivDde) = CC(C)CC(NCCCC[C@H](N)C(=O)O)=C1C(=O)CC(C)(C)CC1=O; Phe(3-CH2NH2) = O=C([C@H](Cc1cccc(CN[*:3])c1)N[*:1])[*:2]; mXylyl″ = bridging moiety between the two marked residues; Ala(1H-tetrazol-5-yl) = N[C@@H](Cc1nnn[nH]1)C(=O)O; Trp(5-F) = N[C@@H](Cc1c[nH]c2ccc(F)cc12)C(=O)O; Trp(7-aza) = N[C@@H](Cc1c[nH]c2ncccc12)C(=O)O; mXylyl(4) = bridging moiety between residues; Trp(1-Me) = Cn1cc(C[C@H](N)C(=O)O)c2ccccc21; 2Nal = N[C@@H](Cc1ccc2ccccc2c1)C(=O)O; Palmitoyl = CCCCCCCCCCCCCCCC(=O)*; NMeD = CN[C@@H](CC(=O)O)C(=O)O; Chg = N[C@H](C(=O)O)C1CCCCC1; Phg = N[C@H](C(=O)O)c1ccccc1; Tle = CC(C)(C)[C@H](N)C(=O)O; NMeS = CN[C@@H](CO)C(=O)O; Ac5c = NC1(C(=O)O)CCCC1; Nva = CCC[C@H](N)C(=O)O; Thp = NC1(C(=O)O)CCOCC1; Mpa = O=C(O)CCS

B1: R3192 (peptide)
peptide: Ac-KVERFD[NMeD][Tle]Y[Trp(7-aza)]EYP[Chg]K-NH2
modifications: lactam 1-6
SMILES: CC(=O)N[C@H]1CCCCNC(=O)C[C@@H](C(=O)N(C)[C@@H](CC(=O)O)C(=O)N[C@H](C(=O)N[C@@H](Cc2ccc(O)cc2)C(=O)N[C@@H](Cc2c[nH]c3ncccc23)C(=O)N[C@@H](CCC(=O)O)C(=O)N[C@@H](Cc2ccc(O)cc2)C(=O)N2CCC[C@H]2C(=O)N[C@H](C(=O)N[C@@H](CCCCN)C(N)=O)C2CCCCC2)C(C)(C)C)NC(=O)[C@H](Cc2ccccc2)NC(=O)[C@H](CCCNC(=N)N)NC(=O)[C@H](CCC(=O)O)NC(=O)[C@H](C(C)C)NC1=O
B2: R3194 (peptide)
peptide: Ac-KVERFD[NMeD][Tle]Y[Trp(7-aza)]EYP[Chg]K(Palmitoyl)-NH2
modifications: lactam 1-6
SMILES: CCCCCCCCCCCCCCCC(=O)NCCCC[C@H](NC(=O)[C@@H](NC(=O)[C@@H]1CCCN1C(=O)[C@H](Cc1ccc(O)cc1)NC(=O)[C@H](CCC(=O)O)NC(=O)[C@H](Cc1c[nH]c2ncccc12)NC(=O)[C@H](Cc1ccc(O)cc1)NC(=O)[C@@H](NC(=O)[C@H](CC(=O)O)N(C)C(=O)[C@@H]1CC(=O)NCCCC[C@H](NC(C)=O)C(=O)N[C@@H](C(C)C)C(=O)N[C@@H](CCC(=O)O)C(=O)N[C@@H](CCCNC(=N)N)C(=O)N[C@@H](Cc2ccccc2)C(=O)N1)C(C)(C)C)C1CCCCC1)C(N)=O
B3: R3041 (peptide)
peptide: Ac-YEN[Tle]YWEYP[Phg][Nva]-NH2
SMILES: CCC[C@H](NC(=O)[C@@H](NC(=O)[C@@H]1CCCN1C(=O)[C@H](Cc1ccc(O)cc1)NC(=O)[C@H](CCC(=O)O)NC(=O)[C@H](Cc1c[nH]c2ccccc12)NC(=O)[C@H](Cc1ccc(O)cc1)NC(=O)[C@@H](NC(=O)[C@H](CC(N)=O)NC(=O)[C@H](CCC(=O)O)NC(=O)[C@H](Cc1ccc(O)cc1)NC(C)=O)C(C)(C)C)c1ccccc1)C(N)=O
B4: R3110 (peptide)
peptide: Ac-YEN[Tle]Y[Trp(1-Me)]EYP[Phg][Nva]-NH2
SMILES: CCC[C@H](NC(=O)[C@@H](NC(=O)[C@@H]1CCCN1C(=O)[C@H](Cc1ccc(O)cc1)NC(=O)[C@H](CCC(=O)O)NC(=O)[C@H](Cc1cn(C)c2ccccc12)NC(=O)[C@H](Cc1ccc(O)cc1)NC(=O)[C@@H](NC(=O)[C@H](CC(N)=O)NC(=O)[C@H](CCC(=O)O)NC(=O)[C@H](Cc1ccc(O)cc1)NC(C)=O)C(C)(C)C)c1ccccc1)C(N)=O
B5: R3119 (peptide)
peptide: Ac-YENY[dW]EYP[Phg][Nva]-NH2
SMILES: CCC[C@H](NC(=O)[C@@H](NC(=O)[C@@H]1CCCN1C(=O)[C@H](Cc1ccc(O)cc1)NC(=O)[C@H](CCC(=O)O)NC(=O)[C@@H](Cc1c[nH]c2ccccc12)NC(=O)[C@H](Cc1ccc(O)cc1)NC(=O)[C@H](CC(N)=O)NC(=O)[C@H](CCC(=O)O)NC(=O)[C@H](Cc1ccc(O)cc1)NC(C)=O)c1ccccc1)C(N)=O

In one assay the target is T1, human C5 protein (human, UniProt P01031 19-673; P01031 678-1676). Put plainly: cell-based or functional assay.
Turning to Ac-[Nva]C[Phg]TAEY[NMeS]HC[Nva]-NH2 (linker 2-10 via mXylyl(4)) [R3034], the “Avg. IC50 (nM), human hemolysis assay” value is over 50000 nM.
As to Ac-[Nva]C[Phg]TWEY[NMeS]AC[Nva]-NH2 (linker 2-10 via mXylyl(3)) [R3091], the “Avg. IC50 (nM), human hemolysis assay” value worked out at 483 nM.
The same measure, in the same setting: as for Ac-[Nva]C[Phg]TFEY[NMeS]AC[Nva]-NH2 (linker 2-10 via mXylyl(3)) [R3092], the figure is over 50000 nM; as for Ac-[Nva]C[Phg]T[Trp(1-Me)]EY[NMeS]AC[Nva]-NH2 (linker 2-10 via mXylyl(3)) [R3109], over 100000 nM; as for Ac-[Nva]C[Phg]TW[Ala(1H-tetrazol-5-yl)]Y[NMeS]HC[Nva]-NH2 (linker 2-10 via mXylyl(3)) [R3131], over 100000 nM.
Turning to Ac-[Nva]C[Phg]T[dW]EY[NMeS]HC[Nva]-NH2 (linker 2-10 via mXylyl(3)) [R3132], the “Avg. IC50 (nM), human hemolysis assay” value was over 100000 nM.
The same measure, in the same setting: the result for Ac-[Nva]C[Phg]T[Trp(5-F)]EY[NMeS]AC[Nva]-NH2 (linker 2-10 via mXylyl(3)) [R3088] reads over 100000 nM.

The target of another assay is T1, human C5 protein. In words: cell-based or functional assay. The source holds these as a separate data set.
Turning to Ac-CVERFC[Thp][Tle]Y[Trp(7-aza)]EYP[Chg][Nva] (linker 1-6 via mXylyl(3)) [R3186], the “Avg. IC50, hemolysis assay with C5 depleted sera” value (shortened to “Avg. IC50, hemolysis assay”) was 18 nM.
In the case of Ac-CVERFCD[Tle]Y[Trp(7-aza)]E[(m-Cl-homo)Phe]P[Chg][Nva] (linker 1-6 via m‑xylyl) [R3179], the “Avg. IC50, hemolysis assay” value was found to be 83 nM.
In the case of Ac-KVERFD[NMeD][Tle]YWEYP[Chg]K (lactam 1-6) [R3196], the “Avg. IC50, hemolysis assay” value was 3 nM.
For the molecule Ac-CVERFCD[Tle]Y[Trp(7-aza)]E[2Nal]P[Chg][Nva] (linker 1-6 via m‑xylyl) [R3180], the “Avg. IC50, hemolysis assay” value is 29 nM.
Ac-KVERFD[NMeD][Tle]YWEYP[Chg]K(Palmitoyl) (lactam 1-6) [R3195]: the “Avg. IC50, hemolysis assay” value came out at 62.5 nM.
With [Mpa][dA]ERFC[NMeD][Tle]Y[Trp(7-aza)]EYP[Chg]K(Palmitoyl) (bridge 1-6; also: cyclo(1,6) between Cys1 and Cys6, ring kind not given here) [R3199], the “Avg. IC50, hemolysis assay” value is 112 nM.
With Ac-CVERFCD[Tle]Y[Phe(3-CH2NH2)]EYP[Chg][Nva] (linker 1-6 via m‑xylyl) [R3181], the “Avg. IC50, hemolysis assay” value was 1500 nM.
Still for that read-out and setting: as for Ac-KVERFD[NMeD][Tle]YWEYP[Chg][Lys(ivDde)] (lactam 1-6) [R3197], the figure is 4 nM; as for B1, 1.5 nM.
On to [Mpa]VERFC[NMeD][Tle]Y[Trp(7-aza)]EYP[Chg]K(Palmitoyl) (bridge 1-6; also: cyclo(1,6) between Cys1 and Cys6, ring kind not given here) [R3198], for which the “Avg. IC50, hemolysis assay” value was found to be 142 nM.
With Ac-CVERFCD[Tle]Y[Trp(7-aza)]EWP[Chg][Nva] (linker 1-6 via m‑xylyl) [R3177], the “Avg. IC50, hemolysis assay” value was 12 nM.
Same read-out and setting: the result for Ac-CVERFC[Ac5c][Tle]Y[Trp(7-aza)]EYP[Chg][Nva] (linker 1-6 via m‑xylyl) [R3185] reads 12.5 nM; that for VERFCD[Tle]Y[Trp(7-aza)]EYP[Chg][Nva] (thioether 1-5) [R3184], 4 nM.
In the case of Ac-CAERFCD[Tle]Y[Trp(7-aza)]EYP[Phg]K(Palmitoyl) (linker 1-6 via m‑xylyl) [R3189], the “Avg. IC50, hemolysis assay” value amounted to 81.5 nM.
Same read-out and setting: the result for B2 reads 15.5 nM.

A further assay deals with T1, human C5 protein. In words: cell-based or functional assay. This is another data set of the same source.
Turning to Ac-[Nva]CYNN[Tle]ECEYP[Phg][Tle]-NH2 (linker 2-8 via mXylyl(3)) [R3129], the “Avg. IC50 (nM), human hemolysis assay” value was over 100000 nM.
In the case of Ac-[Nva]CYNN[Tle]ECEYP[Phg][Tle]-NH2 (cysteine pairing not given here) [R3128], the “Avg. IC50 (nM), human hemolysis assay” value was over 100000 nM.
On the same count and under the same terms, as for B3, the figure is 71.3 nM.
In the case of Ac-[Nva]CYEN[Tle]YCEYP[Phg][Nva]-NH2 (linker 2-8 via mXylyl″) [R3017], the “Avg. IC50 (nM), human hemolysis assay” value was over 100000 nM.
For the molecule B4, the “Avg. IC50 (nM), human hemolysis assay” value was 2940 nM.
As to B5, the “Avg. IC50 (nM), human hemolysis assay” value is over 100000 nM.

In a further assay the target is T1, human C5 protein. Put plainly: cell-based or functional assay. The source holds these as a separate data set.
Consider Ac-[Nva]C[Phg]TAEY[NMeS]HC[Nva]-NH2 (linker 2-10 via mXylyl(4)) [R3034], for which the “Avg. IC50, human hemolysis assay” value was over 50000 nM.
In the case of Ac-[Nva]C[Phg]TWEY[NMeS]AC[Nva]-NH2 (linker 2-10 via mXylyl(3)) [R3091], the “Avg. IC50, human hemolysis assay” value worked out at 483 nM.
Turning to Ac-[Nva]CYNN[Tle]ECEYP[Phg][Tle]-NH2 (linker 2-8 via mXylyl(3)) [R3129], the “Avg. IC50, human hemolysis assay” value is over 100000 nM.
In the case of Ac-[Nva]CYNN[Tle]ECEYP[Phg][Tle]-NH2 (cysteine pairing not given here) [R3128], the “Avg. IC50, human hemolysis assay” value was over 100000 nM.
On to Ac-[Nva]C[Phg]TFEY[NMeS]AC[Nva]-NH2 (linker 2-10 via mXylyl(3)) [R3092], for which the “Avg. IC50, human hemolysis assay” value was over 50000 nM.
With Ac-[Nva]C[Phg]T[Trp(1-Me)]EY[NMeS]AC[Nva]-NH2 (linker 2-10 via mXylyl(3)) [R3109], the “Avg. IC50, human hemolysis assay” value is over 100000 nM.
For the molecule Ac-[Nva]C[Phg]TW[Ala(1H-tetrazol-5-yl)]Y[NMeS]HC[Nva]-NH2 (linker 2-10 via mXylyl(3)) [R3131], the “Avg. IC50, human hemolysis assay” value is over 100000 nM.
Regarding B3, the “Avg. IC50, human hemolysis assay” value came out at 71.3 nM.
For Ac-[Nva]CYEN[Tle]YCEYP[Phg][Nva]-NH2 (linker 2-8 via mXylyl″) [R3017], the “Avg. IC50, human hemolysis assay” value is over 100000 nM.
Take Ac-[Nva]C[Phg]T[dW]EY[NMeS]HC[Nva]-NH2 (linker 2-10 via mXylyl(3)) [R3132]: the “Avg. IC50, human hemolysis assay” value is over 100000 nM.
For the molecule B4, the “Avg. IC50, human hemolysis assay” value came out at 2940 nM.
Still for that read-out and setting: the result for Ac-[Nva]C[Phg]T[Trp(7-aza)]EF[NMeS]AC[Nva]-NH2 (linker 2-10 via mXylyl(3)) [R3100] reads 626 nM; that for Ac-[Nva]C[Phg]T[Trp(5-F)]EY[NMeS]AC[Nva]-NH2 (linker 2-10 via mXylyl(3)) [R3088], over 100000 nM.
Take B5: the “Avg. IC50, human hemolysis assay” value is over 100000 nM.
